In patent publication US20160304584, “MAFB MUTANTS AND USES THEREOF” (INSERM (INSTITUT NATIONAL DE LA SANTÉ ET DE LA …, published 2016) one finds binding result and activity data, which are given here for 5 molecules.

The target of data set [1] is T1, MafB (wt)/c-Fos heterodimer (UniProt P54841;P01101 P54841:211-305,P01101:138-200). The data set can be described thus: EMSA; no significant heterodimer detected. To be noted: label: 32P. Here is the method: (§1) Double-stranded synthetic oligonucleotides corresponding to the T-MARE(a) ([…]) (SEQ ID NO:5), to T-MARE(beta) ([…]) (SEQ ID NO:6) or to T-MARE(y) ([…]) (SEQ ID NO:7) sites were incubated with Klenow fragment DNA polymerase in the presence of [α³²P][…] and purified on Qiaquick Spin Columns (Qiagen). Increasing amount (0.25 to 64 pmol) of recombinant c-Fos and recombinant protein (4 pmol) of MafB (wt) or MafB (E269R) and MafB (V277N) mutants were incubated with 0.05 ng of probe in 20 μL of binding reaction buffer (20 mM Tris-HCl (pH 7.5), 100 mM KCl, 0.1 mM EDTA, 5% glycerol, 0.1% Triton X-100, 0.02% BSA, […] poly d[I-C]) for 20 min. Complexes formed were resolved on a 6% polyacrylamide (acrylamide/bisacrylamide ratio, 29:1) non-denaturating gel (Bio-Rad) in 0.5% Tris-glycine. Gels were dried and autoradiographed at −80° C.
T1 sequence (P54841 211-305, chain 1 of 2): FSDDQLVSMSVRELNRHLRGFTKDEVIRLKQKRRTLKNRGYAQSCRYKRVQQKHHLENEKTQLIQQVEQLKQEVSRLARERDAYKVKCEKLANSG
T1 sequence (P01101 138-200, chain 2 of 2): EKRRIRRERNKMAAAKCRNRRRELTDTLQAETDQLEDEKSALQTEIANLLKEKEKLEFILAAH

The target of data set [2] is MafB (V277N) homodimer (UniProt P54841 SEQ:211-305, V277N). The data set is described as follows: EMSA; no enhanced site selection compared with wt. To be noted: chain copies: 2; label: 32P. Here is the method:
as §1
On the technique in general: A gel shift assay detects complexes by their altered migration in electrophoresis.

Data set [3] concerns the target T2, MafB (wt) homodimer (UniProt P54841 SEQ:211-305). The data set can be described thus: EMSA; only homodimer bound. To be noted: chain copies: 2; label: 32P. Here is the method:
as §1

Data set [4] has as its target T1, MafB (wt)/c-Fos heterodimer. The data set can be described thus: EMSA; strongly preferred over homodimer. The note with it: label: 32P. Here is the method:
as §1

Data set [5] has as its target MafB (V277N)/c-Fos heterodimer (UniProt P54841;P01101 P54841:211-305,P01101:138-200, MafB V277N). The data set can be described thus: EMSA; binding unchanged versus wt. To be noted: label: 32P. On the procedure: as §1
The target in data set [6] is MafB (E269R)/c-Fos heterodimer (UniProt P54841;P01101 P54841:211-305,P01101:138-200, MafB E269R). The data set can be described thus: EMSA; exclusive heterodimer even at residual c-Fos. To be noted: label: 32P. Here is the method:
as §1

The target in data set [7] is MafB (E269R) full-length with c-Fos (UniProt P54841;P01101 P54841:1-323,P01101:1-380, MafB E269R). The data set can be described thus: cell_activity; luciferase, HEK293, with c-Fos. On the procedure: HEK293 cells were grown in Dulbecco's modified eagle's medium supplemented with 10% fetal bovine serum in six-well plates to reach 60-80% confluence at the time of transfection. DNA was transfected by calcium phosphate precipitation procedure as previously described (Sieweke et al., 1996). pTK81 luciferase reporter constructs (200 ng) (Promega) containing three multimerized T-MARE(alpha) ([…] CA […]), T-MARE(beta) ([…] CA […]), or T-MARE (y) ([…] […]) were cotransfected with 200 ng of Rc/CMV (Invitrogen) constructs driving the expression of wt and mutant full-length MafB with or without 200 ng of Rc/CMV construct driving the expression of c-Fos or no transgene (vector control). Assays were performed in duplicate. The transfection efficiency was normalized by assaying for β-galactosidase activity from a cotransfected CVM-LacZ construct, and luciferase activity was analyzed as previously described (Sieweke et al., 1996). […] The transfection efficiency was normalized, by assaying for β-galactosidase activity from a cotransfected CVM-LacZ construct, and luciferase activity was analyzed using a dual-luciferase reporter assay system (Promega, Cat: E1910) according to the manufacturer's recommendations.
Sequence of MafB (E269R) full-length with c-Fos (P54841 whole entry E269R, chain 1 of 2): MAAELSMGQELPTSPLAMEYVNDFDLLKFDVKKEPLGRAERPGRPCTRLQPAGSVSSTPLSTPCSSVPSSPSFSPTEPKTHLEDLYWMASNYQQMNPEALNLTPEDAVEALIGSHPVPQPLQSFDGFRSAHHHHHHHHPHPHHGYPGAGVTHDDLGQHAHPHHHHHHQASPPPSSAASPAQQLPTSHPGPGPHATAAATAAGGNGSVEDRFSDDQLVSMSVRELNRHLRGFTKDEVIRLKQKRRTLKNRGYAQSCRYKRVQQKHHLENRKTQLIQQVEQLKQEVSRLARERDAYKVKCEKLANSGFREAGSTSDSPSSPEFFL
Sequence of MafB (E269R) full-length with c-Fos (P01101 whole entry, stated change not applied, chain 2 of 2): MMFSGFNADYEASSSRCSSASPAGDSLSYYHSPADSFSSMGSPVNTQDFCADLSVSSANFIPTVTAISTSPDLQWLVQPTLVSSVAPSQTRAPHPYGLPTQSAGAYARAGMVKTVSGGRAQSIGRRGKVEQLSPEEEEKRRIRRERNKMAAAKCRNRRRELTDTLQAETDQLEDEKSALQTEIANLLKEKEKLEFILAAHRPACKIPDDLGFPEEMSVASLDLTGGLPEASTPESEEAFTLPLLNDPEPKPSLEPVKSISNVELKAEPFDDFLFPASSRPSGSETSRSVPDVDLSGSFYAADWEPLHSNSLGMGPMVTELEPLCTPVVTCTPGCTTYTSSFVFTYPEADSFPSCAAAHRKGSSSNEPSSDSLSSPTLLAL

Data set [8] concerns the target T2, MafB (wt) homodimer. The data set is described as follows: EMSA; comparable to heterodimer at equimolar c-Fos; favoured with excess MafB. The note with it: chain copies: 2; label: 32P. On the procedure: as §1
Data set [9] has as its target T1, MafB (wt)/c-Fos heterodimer. The data set can be described thus: EMSA; comparable to homodimer at equimolar ratio; favoured with excess c-Fos. To be noted: label: 32P. On the procedure: as §1
Data set [10] has as its target MafB (wt) fragment 211-305 C298S, homodimer (Mus musculus, UniProt P54841 SEQ:211-305, C298S). The data set can be described thus: structure; 2.9 A crystal structure; 50 mM MgCl2 in complex buffer. The note with it: chain copies: 2. On the procedure: The C-terminal region of MafB from Mus musculus (residues 211-305, C298S) was purified as previously described (Textor et al., 2007). Homodimeric MafB₂ complexes were dialyzed overnight into 30 mM Tris-HCl (pH 7.3), 80 mM NaCl, 50 mM MgCl₂ and 3 mM β-mercaptoethanol at room temperature in the presence of an oligonucleotide encompassing the T-MARE-binding site (forward: […] (SEQ ID NO:3); reverse: […] (SEQ ID NO:4), METABION). The protein-DNA complex was further purified by size exclusion chromatography on a Superdex-75 (16/60) column (GE), equilibrated with the dialysis buffer. The pooled peak fractions corresponding to the (MafB)₂/T-MARE complex were analyzed by SDS-PAGE and native PAGE gels and concentrated to 5 mg/mL, using a centrifugal concentrator with a polyethersulfone membrane with a 10,000 MWCO (VIVASPIN, Sartorius Stedim Biotech). Crystallization drops of 400 nL volume, using a 1:1 protein/mother liquor ratio, were set up in 96-well sitting-drop plates and allowed to equilibrate at 19° C. Diffracting crystals grew in the presence of 0.1 M Na-citrate (pH 5.0), 15% [w/v] PEG-4000, 5% [v/v] PEG-400, and 0.1 M MgCl₂.

T2 sequence (P54841 211-305): as the sequence (P54841 211-305, chain 1 of 2) above
Sequence of MafB (V277N)/c-Fos heterodimer (P54841 211-305 V277N, chain 1 of 2): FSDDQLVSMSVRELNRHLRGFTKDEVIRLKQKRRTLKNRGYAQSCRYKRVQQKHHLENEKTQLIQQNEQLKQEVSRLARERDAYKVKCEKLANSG
Sequence of MafB (V277N)/c-Fos heterodimer (P01101 138-200, stated change not applied, chain 2 of 2): as the sequence (P01101 138-200, chain 2 of 2) above
Sequence of MafB (V277N) homodimer (P54841 211-305 V277N): as the sequence (P54841 211-305 V277N, chain 1 of 2) above
Sequence of MafB (wt) fragment 211-305 C298S, homodimer (P54841 211-305 C298S): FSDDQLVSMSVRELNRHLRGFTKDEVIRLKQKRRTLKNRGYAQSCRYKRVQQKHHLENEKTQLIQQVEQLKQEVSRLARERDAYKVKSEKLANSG
Sequence of MafB (E269R)/c-Fos heterodimer (P54841 211-305 E269R, chain 1 of 2): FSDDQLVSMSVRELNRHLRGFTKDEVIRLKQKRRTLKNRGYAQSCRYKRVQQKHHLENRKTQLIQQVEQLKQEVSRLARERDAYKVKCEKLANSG
Sequence of MafB (E269R)/c-Fos heterodimer (P01101 138-200, stated change not applied, chain 2 of 2): as the sequence (P01101 138-200, chain 2 of 2) above

B1: T-MARE(gamma) (dsDNA)
DNA 1: TCGTCCCTTATGCCTACTAGGCAATTCTC
DNA 2: GAGAATTGCCTAGTAGGCATAAGGGACGA
B1: the binding result in data set [1] is reported as “no binding”; in [2] it was “binds”; in data set [3] it was “binds”.

B2: T-MARE(beta) (dsDNA)
DNA 1: TCGTCCCCTCCTATGAGTCAGCAATTCTC
DNA 2: GAGAATTGCTGACTCATAGGAGGGGACGA
For the molecule B2, the binding result in data set [4], in data set [5] and in data set [6] was “binds” in each case.

B3: T-MARE(beta) x3 reporter (dsDNA)
DNA 1: TCGACCTCCCCTCCTATGAGTCAGCAATTCTCTCGAGCTCCCCTCCTATGAGTCAGCAATTCTCTCGAGCTCCCCTCCTATGAGTCAGCAATTCTCGTCGACCC
DNA 2: GGGTCGACGAGAATTGCTGACTCATAGGAGGGGAGCTCGAGAGAATTGCTGACTCATAGGAGGGGAGCTCGAGAGAATTGCTGACTCATAGGAGGGGAGGTCGA
As for B3, the activity in data set [7] was 5 fold vs wt.

B4: T-MARE(alpha) (dsDNA)
DNA 1: TCGTCCCTTATGCTGACTCAGCAATTCTC
DNA 2: GAGAATTGCTGAGTCAGCATAAGGGACGA
Take B4: the binding result in [8] and in [9] was “binds” in each case.

B5: T-MARE 20-bp (dsDNA)
DNA 1: TAATTGCTGACTCAGCAATT
DNA 2: TAATTGCTGAGTCAGCAATT
In the case of B5, the binding result in [10] is given as “binds”.
